Reference: publication PMC4068353, “Characterization of 14-3-3-ζ Interactions with Integrin Tails” (Journal of Molecular Biology, 2013)
Where “and” joins values, the source holds several entries; their conditions need not be identical. Equal values may be shown once. Entries after “also recorded” stand apart in the source; their conditions may differ. Non-standard residues stand in square brackets, D forms with d. Residues, ends and D or L forms follow the SMILES beside them. No end group written: not given here. fluorescein‑5‑maleimide = fluorescein-5-maleimide linked to an engineered C-terminal Cys; pT = C[C@@H](OP(=O)(O)O)[C@H](N)C(=O)O; pS = N[C@@H](COP(=O)(O)O)C(=O)O

Legend:
14-3-3-ζ [1] = target: T1, 14-3-3-ζ (Homo sapiens, UniProt P63104); test: ITC of integrin tail fragments with 14-3-3-ζ; assay type: binding; conditions: 298 K; for Kd: 20 mM sodium phosphate, 50 mM NaCl pH 6.5, integrin fragment in cell (80–200 μM), 14-3-3-ζ in syringe (0.75–2 mM), one-site model, repeated twice; for binding to 14-3-3-ζ by ITC, in words: pH 6.5, fragment in cell, 14-3-3-ζ in syringe
T1 construct: His10 (cleaved yes); made in house
T1 sequence (P63104 1-245): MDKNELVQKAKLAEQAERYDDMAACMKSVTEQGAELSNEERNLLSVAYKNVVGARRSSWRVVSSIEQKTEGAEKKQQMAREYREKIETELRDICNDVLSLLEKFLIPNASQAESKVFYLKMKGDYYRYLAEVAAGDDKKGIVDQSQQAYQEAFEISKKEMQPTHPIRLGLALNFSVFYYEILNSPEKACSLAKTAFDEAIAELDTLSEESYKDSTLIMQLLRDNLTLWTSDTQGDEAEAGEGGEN
Protocol: Phosphorylated α4 synthetic peptides were purchased from GL Biochem Ltd. (Shanghai). All recombinant proteins and synthetic peptides were prepared in 20 mM sodium phosphate and 50 mM NaCl (pH 6.5), and concentrations were determined by UV absorbance at 280 nm. ITC experiments using a VP-ITC200 instrument (MicroCal) were performed at 298 K as follows: the cell (volume, ~ 200 μl) contained the different integrin tail fragments, and the syringe (volume, ~ 40 μl) contained 14-3-3-ζ. A first injection of 2 μl was followed by 15 injections of 2.5 μl, with a stirring speed of 1500 rpm and a delay between injections of 180 s. A blank titration was performed by injecting 14-3-3-ζ into buffer to take the heat of dilution into account. Experiments were repeated twice for each sample. Raw data were processed and fitted with MicroCal Origin software using a one-site model where the error function is calculated as the sum of the squared deviations between the data and the model curve.

14-3-3-ζ [2] = target: T1, 14-3-3-ζ; test: 15N-1H HSQC NMR titration of 15N-labeled integrin tails with unlabeled 14-3-3-ζ; assay type: binding; conditions: 15N-labeled tail 0.1 mM, equimolar unlabeled 14-3-3-ζ; NMR buffer pH 6.5, 25 °C
Protocol: Samples were prepared in NMR buffer (pH 6.5) with 5% D2O, and experiments were performed at 25 °C. Titration experiments were collected on a 500-MHz spectrometer using a water flip-back-embedded gradient enhanced ^15N–^1H HSQC pulse sequence.[46] For the assignment of the α4 and β2 backbone resonances, ^15N–^13C integrin tails of 0.6 mM concentration were used to measure CBCA(CO)NH and CBCANH experiments on a Bruker 500-MHz instrument equipped with a cryogenic probe head. Data were processed using NMRPipe[47] and analyzed with the programs CARA/XEASY[48] or CCPN Analysis.[49]

14-3-3-ζ [3] = target: T1, 14-3-3-ζ; test: Fluorescence polarization titration of fluorescein-labeled integrin tails with 14-3-3-ζ; assay type: binding; conditions: fluorescein-labeled tail, 1 μM; ex 485 nm, em 520 nm
Protocol: Fig. 6 Fluorescence polarization and ITC of interactions between integrin tails and 14-3-3-ζ. (a) Fluorescence polarization titrations of fluorescein-labeled β1A, β3 and α4 with 14-3-3-ζ. […] (b–d) ITC sensorgram of an in-cell 200 μM β1A, β2 (same as in Fig. 5a) or β3 samples injected with 2 mM 14-3-3-ζ.
For fluorescence polarization experiments, integrin tails were labeled with fluorescein-5-maleimide (Invitrogen) linked to an engineered C-terminal Cys residue. Measurements were performed using 96-well microplates (Corning) in a PHERAstar FS microplate reader (BMG Labtech). Fluorescein-labeled integrin tails at 1 μM concentration were excited at 485 nm, and polarization was recorded at 520 nm.

14-3-3-ζ [4] = target: T2, 14-3-3-ζ (UniProt P63104 1-245); test: fluorescence polarisation; fluorescein-labeled integrin tails at 1 μM titrated with increasing amounts of 14-3-3-ζ; 96-well plates; excitation 485 nm, emission 520 nm; single-site model; conditions: both partners purified
T2 construct: 14-3-3 protein zeta; Expressed from the same modified pET16b vector as the integrin tails (His10, 3C site); also called 14-3-3-ζ wt; unlabeled 14-3-3-ζ; not shown: His10, N-terminal, cleaved
T2 sequence: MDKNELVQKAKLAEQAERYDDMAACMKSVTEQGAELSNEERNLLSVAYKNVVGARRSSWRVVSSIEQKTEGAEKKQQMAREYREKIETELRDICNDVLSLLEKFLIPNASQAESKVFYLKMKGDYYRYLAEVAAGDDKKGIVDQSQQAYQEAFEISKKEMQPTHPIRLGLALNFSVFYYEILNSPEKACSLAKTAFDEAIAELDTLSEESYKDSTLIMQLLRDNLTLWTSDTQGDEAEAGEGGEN

14-3-3-ζ [5] = target: T2, 14-3-3-ζ; test: ITC; integrin tail fragment in the cell (80-200 μM), 14-3-3-ζ in the syringe (0.75-2 mM); 298 K; 20 mM sodium phosphate, 50 mM NaCl, pH 6.5; one-site model; conditions: both partners purified
14-3-3-ζ [6] = target: T2, 14-3-3-ζ; test: NMR titration; 15N-1H HSQC of 15N-labeled integrin tail (0.1 mM) before and after addition of unlabeled 14-3-3-ζ (wt or variant; equimolar, 0.1 mM); 20 mM sodium phosphate, 50 mM NaCl, pH 6.5, 5% D2O, 25 °C; read-out: loss of resonance intensity (I/Io); conditions: both partners purified

Molecule: CC[C@H](C)[C@H](NC(=O)[C@H](COP(=O)(O)O)NC(=O)[C@H](CCCCN)NC(=O)[C@H](Cc1ccc(O)cc1)NC(=O)[C@H](CCC(N)=O)NC(=O)[C@H](CCCNC(=N)N)NC(=O)[C@H](CCCCN)NC(=O)[C@@H](N)Cc1ccccc1)C(=O)N[C@@H](CC(C)C)C(=O)N[C@@H](CCC(N)=O)C(=O)N[C@@H](CCC(=O)O)C(=O)O [α4-11pS] (H-FKRQYK[pS]ILQE-OH)
- Kd (14-3-3-ζ [1]): > 300 µM and 315 µM

Molecule: CC[C@H](C)[C@H](NC(=O)[C@H](Cc1ccc(O)cc1)NC(=O)[C@H](CO)NC(=O)[C@H](Cc1c[nH]c2ccccc12)NC(=O)[C@H](CO)NC(=O)[C@H](CC(=O)O)NC(=O)[C@H](CCCNC(=N)N)NC(=O)[C@H](CCCNC(=N)N)NC(=O)[C@H](CC(N)=O)NC(=O)[C@H](CCC(=O)O)NC(=O)[C@H](CCC(=O)O)NC(=O)[C@H](CCC(N)=O)NC(=O)[C@H](CC(C)C)NC(=O)[C@@H](NC(=O)[C@H](COP(=O)(O)O)NC(=O)[C@H](CCCCN)NC(=O)[C@H](Cc1ccc(O)cc1)NC(=O)[C@H](CCC(N)=O)NC(=O)[C@H](CCCNC(=N)N)NC(=O)[C@H](CCCCN)NC(=O)[C@H](Cc1ccccc1)NC(=O)[C@H](Cc1ccccc1)NC(=O)CN)[C@@H](C)CC)C(=O)N[C@@H](CC(N)=O)C(=O)N[C@@H](CO)C(=O)N[C@@H](CCCCN)C(=O)N[C@@H](CO)C(=O)N[C@@H](CC(N)=O)C(=O)N[C@@H](CC(=O)O)C(=O)N[C@@H](CC(=O)O)C(=O)O [α4-30pS] (H-GFFKRQYK[pS]ILQEENRRDSWSYINSKSNDD-OH)
- Kd (14-3-3-ζ [1]): 23.6 ± 2.1 µM

Molecule: GPLGSKAGFFKRQYKDILQEENRRDSWSYINSKSNDD [α4 S1011D, recombinant α4 integrin tail phospho-mimetic, S1011D]
- change of integrin tail resonances on addition of 14-3-3-ζ, in words (14-3-3-ζ [2]): significant decrease in α4 amide resonance intensities

Molecule: GS KLLITIHDRKEFAKFEEERARAKWDTANNPLYKEATSTFTNITYRGT [β3 wt, recombinant β3 integrin tail, residues 742–788]
- change of integrin tail resonances on addition of 14-3-3-ζ, in words (14-3-3-ζ [2]): intensity reduction for several resonances
- binding to 14-3-3-ζ by fluorescence polarization, in words (14-3-3-ζ [3]): No binding was detected
- binding to 14-3-3-ζ by ITC, in words (14-3-3-ζ [1]): Only β1A gave a binding curve that could be fitted

Molecule: GS KLLMIIHDRREFAKFEKEKMNAKWDTQENPIYKSPINNFKNPNYGRKAGL (GSKLLMIIHDRREFAKFEKEKMNAKWDTQENPIYKSPINNFKNPNYGRKAGL; left off: His10, N-terminal, cleaved) [β1D wt, recombinant β1D integrin tail, residues 752–801]
- change of integrin tail resonances on addition of 14-3-3-ζ, in words (14-3-3-ζ [2]): interacts with 14-3-3-ζ in a very similar way to β1A

Molecule: GS RLSVEIYDRREYSRFEKEQQQLNWKQDSNPLYKSAITTTINPRFQEADSPTL (GSRLSVEIYDRREYSRFEKEQQQLNWKQDSNPLYKSAITTTINPRFQEADSPTL; left off: His10, N-terminal, cleaved) [β7 wt, recombinant β7 integrin tail, residues 747–798]
- change of integrin tail resonances on addition of 14-3-3-ζ, in words (14-3-3-ζ [2]): intensity reduction for several resonances

Molecule: GSKALIHLSDLREYRRFEKEKLKSQWNNDNPLFKSATTTVMNPKFAES [β2 wt, recombinant unphosphorylated β2 integrin tail, residues 724–769]
- change of integrin tail resonances on addition of 14-3-3-ζ, in words (14-3-3-ζ [2]): selective broadening of β2 resonances
- binding to 14-3-3-ζ by ITC, in words (14-3-3-ζ [1]): only a weak interaction; also recorded: the interaction is weak, in the millimolar range
- binding to 14-3-3-ζ by ITC, in words (14-3-3-ζ [1]; listed as β2): Only β1A gave a binding curve that could be fitted

Molecule: KALIHLSDLREYRRFEKEKLKSQWNNDNPLFKSA[pT]TTVMNPKFAES [β2-45pT]
- Kd (14-3-3-ζ [1]): 7.9 ± 3.1 µM

Molecule: YKSAVpTTVVNP [β1-11pT, synthetic β1 phospho-threonine peptide, residues 783–793]
- binding to 14-3-3-ζ by ITC, in words (14-3-3-ζ [1]): no binding

Molecule: paxillin residues 111–128: phosphorylated peptide containing a putative 14-3-3 binding motif, corresponding to paxillin residues 111–128 (VGEEEHVYSFPNKQKSAE; also: phosphorylated; UniProt P49023 111-128, looked up, fragment)
- binding to 14-3-3-ζ by ITC, in words (14-3-3-ζ [1]): no interaction was detected by ITC

Molecule: paxillin: construct of the N-terminal region of paxillin (residues 1–323) that included all LD motifs
- binding to 14-3-3-ζ by ITC, in words (14-3-3-ζ [1]): no pairwise interaction was detected by ITC

Molecule: GSKLLMIIHDRREFAKFEKEKMNAKWDTGENPIYKSAVTTVVNPKYEGKC(fluorescein‑5‑maleimide) (domain or fragment) [fluorescein-labeled β1A integrin tail]
- Kd (14-3-3-ζ [4]): 95 ± 16 µM

B1: β2-45pT phospho-peptide (peptide)
peptide: KALIHLSDLREYRRFEKEKLKSQWNNDNPLFKSATTTVMNPKFAES
modifications: also: phospho-threonine at 758
notes: integrin β2 cytoplasmic tail, residues 724-769 of UniProt P05107; T758 is phospho-threonine; also called long β2 phospho-peptide; source: synthetic peptide
- Kd (14-3-3-ζ [5]): 8 µM

B2: α4-30pS phospho-peptide (peptide)
peptide: GFFKRQYK[pS]ILQEENRRDSWSYINSKSNDD
notes: integrin α4 cytoplasmic tail, residues 1003-1032 of UniProt P13612; S1011 is phospho-serine; also called phosphorylated α4-derived peptide; source: synthetic peptide, bought: GL Biochem Ltd. (Shanghai)
- Kd (14-3-3-ζ [5]): ~24 µM

B3: β1A integrin cytoplasmic tail, wild type (domain or fragment, human (from the printed UniProt entry))
chain: GSKLLMIIHDRREFAKFEKEKMNAKWDTGENPIYKSAVTTVVNPKYEGK
notes: residues from the cloning tag at the N-terminus; integrin β1A cytoplasmic tail, residues 752-798 of UniProt P05556; 15N-labelled for NMR, unlabelled for ITC; also called β1A wt; not shown: His10, N-terminal, cleaved
- Kd (14-3-3-ζ [5]): 280 ± 40 µM

B4: α4 integrin cytoplasmic tail S1011D (domain or fragment, human (from the printed UniProt entry))
chain: GPLGSKAGFFKRQYKDILQEENRRDSWSYINSKSNDD
notes: residues from the cloning tag at the N-terminus; integrin α4 cytoplasmic tail, residues 1001-1032 of UniProt P13612, with S1011D; 15N-labelled for NMR, unlabelled for ITC; also called α4 S1011D; α4 phospho-mimetic; not shown: His10, N-terminal, cleaved
- Kd (14-3-3-ζ [5]): ~60 µM

B5: α4 integrin cytoplasmic tail, wild type (domain or fragment, human (from the printed UniProt entry))
chain: GPLGSKAGFFKRQYKSILQEENRRDSWSYINSKSNDD
notes: residues from the cloning tag at the N-terminus; integrin α4 cytoplasmic tail, residues 1001-1032 of UniProt P13612; 15N-labelled for NMR, unlabelled for ITC; also called α4 wt; full-length α4 integrin tail; not shown: His10, N-terminal, cleaved
- binding result (14-3-3-ζ [6]): binds

B6: α4-11pS phospho-peptide (peptide)
peptide: FKRQYK[pS]ILQE
notes: integrin α4 cytoplasmic tail, residues 1005-1015 of UniProt P13612; S1011 is phospho-serine; also called short phosphorylated α4 integrin peptide; source: synthetic peptide, bought: GL Biochem Ltd. (Shanghai)
- Kd (14-3-3-ζ [5]): > 300 µM

B7: β2-11pT phospho-peptide (peptide)
peptide: PLFKSATTTVM
modifications: also: phospho-threonine at 758
notes: integrin β2 cytoplasmic tail, residues 752-762 of UniProt P05107; T758 is phospho-threonine; also called short β2 phospho-peptide; source: synthetic peptide
- Kd (14-3-3-ζ [5]): 4 µM
